Experiments:
[1] = test system: HLA-A2.1; experiment: Surface expression of co-transfected HLA-A2.1 constructs on HeLa cells, flow cytometry; assay type: cell-based, human
Protocol: Flow cytometry. Cells were removed from tissue culture dishes with 0.05% Trypsin-EDTA (Invitrogen), washed with ice-cold PBS, and incubated with appropriate antibody for 30 minutes at 4° C. The cells were washed with ice-cold PBS and either resuspended in ice-cold PBS or incubated with PE-conjugated anti-mouse secondary antibody (DAKO) and washed again before analysis with a BD Biosciences (San Jose, Calif.) FACScalibur flow cytometer.
The ability to downregulate MHC I is common to KSHV-K3, KSHV-K5, MHV68-K3 and MV-M153R (Coscoy and Ganem, 2000, supra; Guerin et al., 2002, supra; Ishido et al., 2000b supra; Stevenson et al., 2000, supra). Additional substrates are ICAM-1 and B7.2 (but not B7.1) for KSHV-K5, as well as CD95 and CD4 for M153R (Coscoy and Ganem, 2001, supra; Guerin et al., 2002, supra; Ishido et al., 2000a, supra; Mansouri et al., 2003, supra). Since only low copy numbers were detected in HeLa cells for transcripts corresponding to each of the MARCH-proteins (FIG. 7C, and data not shown), HeLa cells were transfected with expression plasmids for MARCH-I, II, III, IV, V and VIII. Surface expression of selected glycoproteins was monitored upon transfection. The following known substrates for viral K3-family members were tested: Fas (CD95) and HLA class I (MHC I), both of which are endogenously expressed in HeLa cells, as well as transfected HLA-A2.1 or CD4. […] Surface expression of the respective markers was analyzed by flow cytometry. GFP was used to identify transfected cells.
The most likely targets for ubiquitination on transmembrane glycoproteins are lysines in the cytoplasmic tail. To examine the role of lysines for MHC I and CD4 downregulation by MARCH-IV, a panel of constructs derived from the human MHC I molecule HLA-A2.1 and a lysine-deleted version of CD4 (Mansouri et al., 2003, supra) were used. In addition to MARCH-IV, MARCH-VIII was included in this analysis since it reduced HLA-A2.1 surface expression (FIG. 10A). […] To rule out the possibility that these mutations changed the target molecules in such a way that they are no longer recognized by MARCH-IV or VIII, a lysine residue into a HA-tag at the carboxyterminal end of HLA-A2.1 was introduced.

[2] = test system: ubiquitin; experiment: In vitro ubiquitination assay with GST-fused RING-CH (PHD) domains, E1, E2 panel, anti-ubiquitin immunoblot; assay type: biochemical; conditions: E2 = UbCH2
Protocol: Ubiquitination assay. UbCH2 and UbCH3 were obtained from Boston Biochem. (His)6-UbCH5a and GST fusion proteins were expressed in BL21-DE3 cells (Stratagene) and BL21 cells (Amersham), respectively, and purified as previously described (Boutell, C., S. Sadis and R. D. Everett, J. Virol. 76:841-850, 2002; Tiwari, S. and A. M. Weissman, J. Biol. Chem. 276:16193-16200, 2001). Purified E3 proteins were stored at 4° C., and E2 proteins were stored at −80° C. In vitro reaction mixtures (20 μl total) included: 50 nM rabbit E1 (Boston Biochem), 28 μM Ubiquitin, 5 mM ATP, 50 mM Tris-HCl pH 7.5, 50 mM NaCl, and 2 mM DTT. E2 enzymes were used at concentrations varying from 0.1 to 2.3 μM, and E3 concentrations ranged from 3 to 30 μM. After 90 minutes of incubation at 30° C., reactions were stopped by boiling in SDS sample buffer. Samples were electrophoresed through 12% polyacrylamide SDS gels and blotted using anti-ubiquitin mouse antibody, P4D1 (Santa Cruz Biotech).
In vitro reaction mixtures (20 μl total) included: 50 nM rabbit E1 (Boston Biochem), 28 μM Ubiquitin, 10 mM ATP, 50 mM Tris-HCl pH 7.5, 50 mM NaCl, and 2 mM DTT. E2 enzymes were used at concentrations varying from 0.7 to 2.3 μM, and E3 concentrations ranged from 3 to 25 μM. After 90 minutes of incubation at 30° C., reactions were stopped by addition of 4×reducing sample buffer. Samples were electrophoresed through 12% SDS gels and blotted using anti-ubiquitin mouse antibody (Santa Cruz Biotech).
To examine if the RING-CH domains of MARCH-I and MARCH-II would act as ubiquitin ligases in vitro, DNA fragments encoding the amino-terminal RING-CH-domain of both proteins were fused to Glutathione-S-transferase. The resulting constructs were sequence confirmed and expression of GST-MARCH protein verified by immunoblot. The GST-fusion protein was expressed and purified from E. coli cultures using Glutathione-columns. The ICP0-RING-domain was also purified, in parallel with the MARCH-I and MARCH-II constructs. A panel of E2 enzymes was either purchased from commercial sources or purified either by nickel-chelate chromatography or on glutathione columns. All E2-enzymes formed mercapto-ethanol-sensisitve complexes with ubiquitin thus showing ubiquitin conjugating activity. Purified ubiquitin and E1 was obtained from commercial sources.
To examine if the RING-CH domains of MARCH proteins act as ubiquitin ligases in vitro, a DNA fragment encoding the amino-terminal RING-CH-domains of MARCH-I, II, IV and VIII were fused to Glutathione-S-transferase (GST) for bacterial expression. The GST-fusion proteins were purified from E. coli cultures using Glutathione-sepharose-columns. Approximately thirty E2 proteins are found in the human genome compared to only one E1 enzyme (Pickart, 2001, supra). […] The specificity and selectivity of E3s with respect to E2s, however, is not well characterized. To cover a spectrum of E2s, a panel of E2 enzymes (Mansouri et al., 2003, supra) was acquired. The various E2 enzymes were incubated with or without the RING-CH-GST fusions in the presence of ubiquitin, ATP, E1. The formation of multiubiquitin-adducts was examined by immunoblotting with antibodies against ubiquitin.

[3] = test system: MHC I; experiment: MHC I uptake assay in HeLa cells; assay type: cell-based, human; conditions: transfected HeLa cells, 37° C. for 120 minutes
Protocol: Uptake Assay. Uptake of MHC I was measured as previously described (Ishido et al., 2000b, supra). In short, HeLa cells were transfected with MARCH-IV. Twenty four hours post-transfection cells were washed and an anti-MHC I antibody allowed to bind at 4° C. Cells were then either fixed immediately or transferred to 37° C. for 120 minutes to allow uptake of antibody bound glycoproteins. Antibody bound to glycoprotein was visualized using an Alexaflour:594-conjugated secondary antibody.
The observed downregulation of MHC I and CD4 by MARCH-IV permitted the study of the molecular mechanism by which MARCH-proteins reduce glycoprotein levels. […] The only known exception is MHV68-K3 which mediates proteasomal degradation of MHC I prior to its exit from the ER (Boname and Stevenson, 2001, supra). To study if MHC I was internalized by MARCH-IV, the recycling of MHC I in MARCH-IV transfected and non-transfected cells over the course of 2 hours was compared. MHC I on MARCH-IV transfected or non-transfected cells was labeled with anti-MHC I antibody at 4° C.

B1: MARCH-IV: human membrane-associated RING-CH ubiquitin ligase, SEQ ID NOS:45 and 57; construct used lacks the first 63 amino-acids (protein)
chain: WYCYGLCAPAPQMLRHQGLLKCRCRMLFNDLKVFLLRRPPQAPLPMHGDPQPPGLAANNTLPALGAGGWAGWRGPREVVGREPPPVPPPPPLPPSSVEDDWGGPATEPPASLLSSASSDDFCKEKTEDRYSLGSSLDSGMRTPLCRICFQGPEQGELLSPCRCDGSVKCTHQPCLIKWISERGCWSCELCYYKYHVIAISTKNPLQWQAISLTVIEKVQVAAAILGSLFLIASISWLIWSTFSPSARWQRQDLLFQICYGMYGFMDVVCIGLIIHEGPSVYRIFKRWQAVNQQWKVLNYDKTKDLEDQKAGGRTNPRTSSSTQANIPSSEEETAGTPAPEQGPAQAAGHPSGPLSHHHCAYTILHILSHLRPHEQRSPPGSSRELVMRVTTV
- downregulation of HLA-A2.1 with a lysine re-introduced into the C-terminal HA-tag ([1]; HeLa cells): restored downregulation
- surface expression of transfected HLA-A2.1 ([1]; HeLa cells co-transfected with HLA-A2.1 and MARCH plasmid): reduced the surface expression
- downregulation of HLA-A2.1 with lysines removed from the tail ([1]; HeLa cells, lysine-less HLA-A2.1 construct): resistant
- ubiquitin ligase activity with UbCH2 [2]: mostly active
- internalization (uptake) of antibody-labeled MHC I [3]: rapid internalization
